Measurements taken from patent US20230313180A1.
Read-outs that look alike come from different tables or passages of the source.

B1: (Nb1N)3, homotrimer of Nb1 (VHH72) with Tet3.0 at the N-terminal position, joined by the 3-armed Tri-sTCO PEG linker (VHH)
VHH: SGTGSQVQLQESGGGLVQAGGSLRLSCAASGRTFSEYAMGWFRQAPGKEREFVATISWSGGSTYYTDSVKGRFTISRDNAKNTVYLQMNSLKPDDTAVYYCAAAGLGTVVSEWDYDYYLDYWGQGTQVTVSS
modifications: not checked
B2: (Nb1N)2, homodimer of Nb1 (VHH72) with Tet3.0 at the N-terminal position, joined by the 2-headed sTCO (PEG)12 linker (VHH)
VHH: SGTGSQVQLQESGGGLVQAGGSLRLSCAASGRTFSEYAMGWFRQAPGKEREFVATISWSGGSTYYTDSVKGRFTISRDNAKNTVYLQMNSLKPDDTAVYYCAAAGLGTVVSEWDYDYYLDYWGQGTQVTVSS
modifications: not checked
B3: (Nb142)2, homodimer of Nb1 (VHH72) with Tet3.0 at framework position Gly42, joined by the 2-headed sTCO (PEG)12 linker (VHH)
VHH: QVQLQESGGGLVQAGGSLRLSCAASGRTFSEYAMGWFRQAPGKEREFVATISWSGGSTYYTDSVKGRFTISRDNAKNTVYLQMNSLKPDDTAVYYCAAAGLGTVVSEWDYDYYLDYWGQGTQVTVSS
modifications: not checked
B4: (Nb113)2, homodimer of Nb1 (VHH72) with Tet3.0 at framework position Gln13, joined by the 2-headed sTCO (PEG)12 linker (VHH)
VHH: QVQLQESGGGLVQAGGSLRLSCAASGRTFSEYAMGWFRQAPGKEREFVATISWSGGSTYYTDSVKGRFTISRDNAKNTVYLQMNSLKPDDTAVYYCAAAGLGTVVSEWDYDYYLDYWGQGTQVTVSS
modifications: not checked
B5: (Nb1C)2, homodimer of Nb1 (VHH72) with Tet3.0 at the C-terminus, joined by the 2-headed sTCO (PEG)12 linker (VHH)
VHH: QVQLQESGGGLVQAGGSLRLSCAASGRTFSEYAMGWFRQAPGKEREFVATISWSGGSTYYTDSVKGRFTISRDNAKNTVYLQMNSLKPDDTAVYYCAAAGLGTVVSEWDYDYYLDYWGQGTQVTVSS
modifications: not checked

How the values were obtained:
[1] = biological target: SARS-CoV-2-RBD tagged with a C-terminal Fc tag (ACRO Biosystems) (SARS-CoV-2) (UniProt P0DTC2)
[2] = biological target: SARS-CoV-2-RBD tagged with a C-terminal Fc tag (ACRO Biosystems) (SARS-CoV-2) (UniProt P0DTC2); experiment: BLI, immobilized SARS-CoV-2 RBD
[3] = biological target: T1, SARS-CoV-2-RBD tagged with a C-terminal Fc tag (ACRO Biosystems) (SARS-CoV-2), P0DTC2; experiment: BLI, immobilized SARS-CoV-2 RBD; reference Nb1-Nb1 genetic dimer
[4] = biological target: T1, SARS-CoV-2-RBD tagged with a C-terminal …; experiment: BLI, immobilized SARS-CoV-2 RBD; reference (Nb1N)2
[5] = biological target: T1, SARS-CoV-2-RBD tagged with a C-terminal …
[6] = biological target: T1, SARS-CoV-2-RBD tagged with a C-terminal …; remark: listed apart in the source

Molecule | fold tighter binding than Nb1-Nb1 [3] | Kd [6] | koff [6] | kon [6] | other results
Nb1-Nb1, genetically linked "tail to head" dimer of Nb1 (VHH72) | – | – | – | – | Kd [1]: 89 nM; koff [1]: 0.00314 s⁻¹; kon [1]: 35400 M⁻¹ s⁻¹; Kd [2]: 88 nM
B1 | – | – | – | – | fold tighter KD than the genetic dimer Nb1-Nb1 [3]: 44 fold; fold larger kon than (Nb1N)2 [4]: 3 fold; fold smaller koff than (Nb1N)2 [4]: 2 fold; fold tighter KD than (Nb1N)2 [4]: 6 fold; Kd [5]: 2.31 nM; koff [5]: 0.000566 s⁻¹; kon [5]: 246000 M⁻¹ s⁻¹
B2 | 7 fold | 13.8 nM | 0.00119 s⁻¹ | 85800 M⁻¹ s⁻¹ | –
B3 | 3 fold | 27.5 nM | 0.00201 s⁻¹ | 73100 M⁻¹ s⁻¹ | –
B4 | – | 46 nM | 0.00156 s⁻¹ | 33800 M⁻¹ s⁻¹ | –
B5 | – | 132 nM | 0.0064 s⁻¹ | 48100 M⁻¹ s⁻¹ | fold weaker binding than Nb1-Nb1 [3]: 1.5 fold
